Laboratory results published in patent US20240270860A1.

How the values were obtained:
Assay in all cases: peptide-array ELISA (CYS.S) [Continued]
2LS2…2RPGWY2AL = biological target: T1, 2LS2…2RPGWY2AL
T1 sequence (peptide, 2 = Cys(ACM)): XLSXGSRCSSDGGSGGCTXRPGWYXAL

2LS2…2RPGWY2 = biological target: T2, 2LS2…2RPGWY2
T2 sequence (peptide, 2 = Cys(ACM)): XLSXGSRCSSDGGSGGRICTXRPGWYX

2LS2…2RPGWY = biological target: T3, 2LS2…2RPGWY
T3 sequence (peptide, 2 = Cys(ACM)): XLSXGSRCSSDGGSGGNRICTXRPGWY

2…2RPGWY2AL = biological target: T4, 2…2RPGWY2AL
T4 sequence (peptide, 2 = Cys(ACM)): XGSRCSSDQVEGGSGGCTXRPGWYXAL

2…2RPGWY2A = biological target: T5, 2…2RPGWY2A
T5 sequence (peptide, 2 = Cys(ACM)): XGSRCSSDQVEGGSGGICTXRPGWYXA

2…2RPGWY = biological target: T6, 2…2RPGWY
T6 sequence (peptide, 2 = Cys(ACM)): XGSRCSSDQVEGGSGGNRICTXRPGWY

[1] = biological target: T7, 2…
T7 sequence (peptide, 2 = Cys(ACM)): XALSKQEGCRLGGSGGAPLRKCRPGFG

[2] = biological target: T8, 2…; remark: listed apart in the source
T8 sequence (peptide, 2 = Cys(ACM)): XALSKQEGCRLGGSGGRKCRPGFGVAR

E2LS2…2RPGWY2A = biological target: T9, E2LS2…2RPGWY2A
T9 sequence (peptide, 2 = Cys(ACM)): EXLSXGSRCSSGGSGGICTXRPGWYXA

E2LS2…2RPGWY2 = biological target: T10, E2LS2…2RPGWY2
T10 sequence (peptide, 2 = Cys(ACM)): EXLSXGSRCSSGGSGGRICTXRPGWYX

E2LS2…2RPGWY = biological target: T11, E2LS2…2RPGWY
T11 sequence (peptide, 2 = Cys(ACM)): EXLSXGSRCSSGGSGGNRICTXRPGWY

[3] = biological target: T12, EGCRL2…2…
T12 sequence (peptide, 2 = Cys(ACM)): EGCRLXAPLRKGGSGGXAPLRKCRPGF

[4] = biological target: T13, EQNRI2…
T13 sequence (peptide, 2 = Cys(ACM)): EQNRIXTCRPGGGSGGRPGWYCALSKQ

[5] = biological target: T14, KQEGCRL2APLGGSGG2…
T14 sequence (peptide, 2 = Cys(ACM)): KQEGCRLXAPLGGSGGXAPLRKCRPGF

[6] = biological target: T15, KQEGCRL2…
T15 sequence (peptide, 2 = Cys(ACM)): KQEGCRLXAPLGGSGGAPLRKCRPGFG

[7] = biological target: T16, KQEGCRL2…; remark: listed apart in the source
T16 sequence (peptide, 2 = Cys(ACM)): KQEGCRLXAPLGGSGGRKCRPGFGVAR

LS2…2RPGWY2 = biological target: T17, LS2…2RPGWY2
T17 sequence (peptide, 2 = Cys(ACM)): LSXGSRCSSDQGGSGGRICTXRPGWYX

PE2LS2…2RPGWY2 = biological target: T18, PE2LS2…2RPGWY2
T18 sequence (peptide, 2 = Cys(ACM)): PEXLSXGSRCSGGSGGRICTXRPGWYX

[8] = biological target: T19, QEGCRL2…
T19 sequence (peptide, 2 = Cys(ACM)): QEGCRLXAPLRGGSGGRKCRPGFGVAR

S2…2RPGWY2 = biological target: T20, S2…2RPGWY2
T20 sequence (peptide, 2 = Cys(ACM)): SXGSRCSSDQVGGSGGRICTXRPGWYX

[9] = biological target: T21, SKQEGCRL2APGGSGG2…
T21 sequence (peptide, 2 = Cys(ACM)): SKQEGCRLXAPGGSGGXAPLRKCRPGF

[10] = biological target: T22, SKQEGCRL2…
T22 sequence (peptide, 2 = Cys(ACM)): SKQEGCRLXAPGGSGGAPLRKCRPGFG

[11] = biological target: T23, SKQEGCRL2…; remark: listed apart in the source
T23 sequence (peptide, 2 = Cys(ACM)): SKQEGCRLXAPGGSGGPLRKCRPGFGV

[12] = biological target: T24, TREQNRI2…
T24 sequence (peptide, 2 = Cys(ACM)): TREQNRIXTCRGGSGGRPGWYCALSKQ

VPE2LS2…2RPGWY2 = biological target: T25, VPE2LS2…2RPGWY2
T25 sequence (peptide, 2 = Cys(ACM)): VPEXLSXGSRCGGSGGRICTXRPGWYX

VPE2LS2…2RPGWY = biological target: T26, VPE2LS2…2RPGWY
T26 sequence (peptide, 2 = Cys(ACM)): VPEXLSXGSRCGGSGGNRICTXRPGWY

[13] = biological target: T27, WY2…2…
T27 sequence (peptide, 2 = Cys(ACM)): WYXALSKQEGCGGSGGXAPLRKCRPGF

[14] = biological target: T28, Y2…2…
T28 sequence (peptide, 2 = Cys(ACM)): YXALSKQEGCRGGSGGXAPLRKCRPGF

[15] = biological target: T29, Y2…
T29 sequence (peptide, 2 = Cys(ACM)): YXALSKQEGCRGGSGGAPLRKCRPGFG

[16] = biological target: T30, …2AGGSGG2…
T30 sequence (peptide, 2 = Cys(ACM)): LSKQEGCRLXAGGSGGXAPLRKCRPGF

…2RPGWY2A [17] = biological target: T31, …2RPGWY2A
T31 sequence (peptide, 2 = Cys(ACM)): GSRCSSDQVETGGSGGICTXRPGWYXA

…2RPGWY2A [18] = biological target: T32, …2RPGWY2A; remark: listed apart in the source
T32 sequence (peptide, 2 = Cys(ACM)): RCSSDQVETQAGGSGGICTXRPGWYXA

…2RPGWY2A [19] = biological target: T33, …2RPGWY2A; remark: listed apart in the source
T33 sequence (peptide, 2 = Cys(ACM)): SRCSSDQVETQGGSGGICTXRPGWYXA

…2RPGWY2 [20] = biological target: T34, …2RPGWY2
T34 sequence (peptide, 2 = Cys(ACM)): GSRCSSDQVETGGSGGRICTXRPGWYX

…2RPGWY2 [21] = biological target: T35, …2RPGWY2; remark: listed apart in the source
T35 sequence (peptide, 2 = Cys(ACM)): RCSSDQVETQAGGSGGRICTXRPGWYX

…2RPGWY [22] = biological target: T36, …2RPGWY
T36 sequence (peptide, 2 = Cys(ACM)): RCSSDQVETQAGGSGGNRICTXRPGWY

…2RPGWY [23] = biological target: T37, …2RPGWY; remark: listed apart in the source
T37 sequence (peptide, 2 = Cys(ACM)): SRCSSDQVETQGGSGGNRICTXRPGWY

[24] = biological target: T38, …2…
T38 sequence (peptide, 2 = Cys(ACM)): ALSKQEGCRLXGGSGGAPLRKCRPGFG

[25] = biological target: T39, …2…; remark: listed apart in the source
T39 sequence (peptide, 2 = Cys(ACM)): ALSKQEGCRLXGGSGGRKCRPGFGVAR

[26] = biological target: T40, …2…; remark: listed apart in the source
T40 sequence (peptide, 2 = Cys(ACM)): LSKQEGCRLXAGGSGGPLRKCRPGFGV

[27] = biological target: T41, …2…; remark: listed apart in the source
T41 sequence (peptide, 2 = Cys(ACM)): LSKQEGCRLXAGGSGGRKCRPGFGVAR

Raw luminescence data (2LS2…2RPGWY2AL): 603 | Raw luminescence data (2LS2…2RPGWY2): 436 | Raw luminescence data (2LS2…2RPGWY): 878 | Raw luminescence data (2…2RPGWY2AL): 480 | Raw luminescence data (2…2RPGWY2A): 402 | Raw luminescence data (2…2RPGWY): 588 | Raw luminescence data [1]: 418 | Raw luminescence data [2]: 443 | Raw luminescence data (E2LS2…2RPGWY2A): 454 | Raw luminescence data (E2LS2…2RPGWY2): 478 | Raw luminescence data (E2LS2…2RPGWY): 389 | Raw luminescence data [3]: 604 | Raw luminescence data [4]: 263 | Raw luminescence data [5]: 528 | Raw luminescence data [6]: 242 | Raw luminescence data [7]: 430 | Raw luminescence data (LS2…2RPGWY2): 546 | Raw luminescence data (PE2LS2…2RPGWY2): 585 | Raw luminescence data [8]: 426 | Raw luminescence data (S2…2RPGWY2): 465 | Raw luminescence data [9]: 507 | Raw luminescence data [10]: 220 | Raw luminescence data [11]: 369 | Raw luminescence data [12]: 188 | Raw luminescence data (VPE2LS2…2RPGWY2): 478 | Raw luminescence data (VPE2LS2…2RPGWY): 853 | Raw luminescence data [13]: 327 | Raw luminescence data [14]: 308 | Raw luminescence data [15]: 553 | Raw luminescence data [16]: 529 | Raw luminescence data (…2RPGWY2A [17]): 403 | Raw luminescence data (…2RPGWY2A [18]): 372 | Raw luminescence data (…2RPGWY2A [19]): 388 | Raw luminescence data (…2RPGWY2 [20]): 594 | Raw luminescence data (…2RPGWY2 [21]): 543 | Raw luminescence data (…2RPGWY [22]): 247 | Raw luminescence data (…2RPGWY [23]): 482 | Raw luminescence data [24]: 321 | Raw luminescence data [25]: 455 | Raw luminescence data [26]: 434 | Raw luminescence data [27]: 474
B1: antagonistic TNFR2 antibody TNFRAB1 (antibody, V domains shown)
VH: EVQLQESGGGLVKPGGSLKLSCAASGFTFSSYVMSWVRQTPEKRLEWVATISSGGSYTYYPDSVKGRFTISRDNAKNTLYLQMSSLRSEDTAMYYCARQRVDGYSSYWYFDVWGAGTAVTVSS
VL: DIVLTQSPAIMSASPGEKVTITCSASSSVYYMYWFQQKPGTSPKLWIYSTSNLASGVPVRFSGSGSGTSYSLTISRMEAEDAATYYCQQRRNYPYTFGGGTKLEIKR
